Tested on: E. coli
Test: TEM-1 β-lactamase activity in vivo: ampicillin MIC of BLA DEL library colonies
Type: cell-based, Escherichia coli DH5α
Conditions: minimum ampicillin concentration preventing growth of E. coli DH5α carrying the bla variant in pNOM; LB agar, 37° C., 16 hr
Protocol: The MuDel-inserted pNOM plasmids were isolated from each of the 22 colonies and equal amounts of each plasmid were pooled and subjected to restriction digestion with MlyI followed by agarose gel electrophoresis. The band corresponding to the linear pNOM minus MuDel was isolated and purified after agarose gel electrophoresis. Intramolecular ligation was performed using T4 DNA ligase and approximately 10 ng of linear pNOM (reaction conditions described above). The reaction was left at 25° C. for 10 min followed by 10 hr at 16° C. E. coli DH5α cells were transformed by electroporation with 1 μl of the ligation mixture. 500 μl of SOC medium was added to the cells immediately after electroporation and the cells were incubated at 37° C. for 1 hr. 50 μl and 500 μl of the recovering transformed cell cultures were plated on LB agar plates containing 15 μg/ml ampicillin. The plates were left overnight at 37° C. and 94 BLA^DEL library and two pNOM-containing colonies were selected and transferred to 96 deep-well culture plates containing 200 μl LB medium and 15 μg/ml ampicillin. The cells were grown for 16 hr at 37° C. with vigorous shaking. Sterile glycerol was added to 10% (v/v) for storage at −80° C.
The TEM-1 β-lactamase activity of each colony was measured in vivo by determining the minimum inhibitory concentration (MIC) of ampicillin that prevents E. coli growth. […]

B1: Wild-type (pNOM): wild-type TEM-1 β-lactamase encoded by the bla gene of pNOM, control (protein, UniProt P62593 24-286, looked up)
Beta-lactamase TEM: HPETLVKVKDAEDQLGARVGYIELDLNSGKILESFRPEERFPMMSTFKVLLCGAVLSRVDAGQEQLGRRIHYSQNDLVEYSPVTEKHLTDGMTVRELCSAAITMSDNTAANLLLTTIGGPKELTAFLHNMGDHVTRLDRWEPELNEAIPNDERDTTMPAAMATTLRKLLTGELLTLASRQQLIDWMEADKVAGPLLRSALPAGWFIADKSGAGERGSRGIIAALGPDGKPSRIVVIYTTGSQATMDERNRQIAEIGASLIKHW
Amp MIC: > 10000 µg/mL

Reference: patent US20090053761A1, “Polypeptide Mutagenesis Method” (University College Cardiff Consultants Ltd., priority 2005, published 2009)
